Assay [1] concerns the target receptors of human cells in the presence of IFN-α2 (human) (UniProt P01563). In words: 125I-LcrV68-326 plus unlabelled IFN-α2 on human thymocytes.
Assay [2] shares this target. Briefly: 125I-LcrV68-326 plus unlabelled IFN-α2 on human monocytes.
The target of assay [3] is synthetic fragment of the mouse TLR-2 extracellular domain (mouse).
In assay [4] the target is receptors of human cells in the presence of IFN-α2 (human) (UniProt P01563). Briefly: 125I-LcrV68-326 plus unlabelled IFN-α2 on human neutrophils.
For assay [5] the target is unchanged. Briefly: 125I-LcrV68-326 plus unlabelled IFN-α2 on U937 cells.
The target of assay [6] is IFN-γ receptor on human cells (no IFN-γ added) (human) (UniProt P15260). In words: 125I-LcrV68-326 alone on human neutrophils.
Chain of IFN-γ receptor on human cells (no IFN-γ added) (human) (P15260 18-489): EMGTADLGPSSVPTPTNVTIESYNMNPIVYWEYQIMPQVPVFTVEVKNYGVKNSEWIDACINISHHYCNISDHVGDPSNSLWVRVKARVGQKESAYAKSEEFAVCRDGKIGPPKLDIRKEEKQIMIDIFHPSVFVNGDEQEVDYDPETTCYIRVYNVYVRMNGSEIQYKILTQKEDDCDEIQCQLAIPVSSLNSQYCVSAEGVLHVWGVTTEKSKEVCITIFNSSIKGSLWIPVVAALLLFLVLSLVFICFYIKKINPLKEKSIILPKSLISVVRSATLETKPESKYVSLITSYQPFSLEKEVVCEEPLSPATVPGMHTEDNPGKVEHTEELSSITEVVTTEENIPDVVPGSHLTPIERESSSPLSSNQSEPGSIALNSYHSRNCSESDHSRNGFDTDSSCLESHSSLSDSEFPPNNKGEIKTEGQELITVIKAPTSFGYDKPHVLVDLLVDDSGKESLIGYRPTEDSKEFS
Assay [7] has the same target. In words: 125I-LcrV68-326 alone on human monocytes.
Assay [8] addresses human TLR-2 receptor on CD14-positive human thymic epithelial VTEC2.HS cells (human) (UniProt O60603). In words: Scatchard analysis, 125I radioligand on VTEC2.HS cells.
In assay [9] the target is IFN-γ receptor on human cells (no IFN-γ added) (human) (UniProt P15260). In words: 125I-LcrV68-326 alone on human thymocytes.
The target is the same in assay [10]. Briefly: 125I-LcrV68-326 alone on U937 cells.
In assay [11] the target is human TLR-2 receptor on CD14-positive human thymic epithelial VTEC2.HS cells (human) (UniProt O60603). Briefly: 125I radioligand on VTEC2.HS cells; binding not detectable.
Chain of human TLR-2 receptor on CD14-positive human thymic epithelial VTEC2.HS cells (human) (O60603 21-784): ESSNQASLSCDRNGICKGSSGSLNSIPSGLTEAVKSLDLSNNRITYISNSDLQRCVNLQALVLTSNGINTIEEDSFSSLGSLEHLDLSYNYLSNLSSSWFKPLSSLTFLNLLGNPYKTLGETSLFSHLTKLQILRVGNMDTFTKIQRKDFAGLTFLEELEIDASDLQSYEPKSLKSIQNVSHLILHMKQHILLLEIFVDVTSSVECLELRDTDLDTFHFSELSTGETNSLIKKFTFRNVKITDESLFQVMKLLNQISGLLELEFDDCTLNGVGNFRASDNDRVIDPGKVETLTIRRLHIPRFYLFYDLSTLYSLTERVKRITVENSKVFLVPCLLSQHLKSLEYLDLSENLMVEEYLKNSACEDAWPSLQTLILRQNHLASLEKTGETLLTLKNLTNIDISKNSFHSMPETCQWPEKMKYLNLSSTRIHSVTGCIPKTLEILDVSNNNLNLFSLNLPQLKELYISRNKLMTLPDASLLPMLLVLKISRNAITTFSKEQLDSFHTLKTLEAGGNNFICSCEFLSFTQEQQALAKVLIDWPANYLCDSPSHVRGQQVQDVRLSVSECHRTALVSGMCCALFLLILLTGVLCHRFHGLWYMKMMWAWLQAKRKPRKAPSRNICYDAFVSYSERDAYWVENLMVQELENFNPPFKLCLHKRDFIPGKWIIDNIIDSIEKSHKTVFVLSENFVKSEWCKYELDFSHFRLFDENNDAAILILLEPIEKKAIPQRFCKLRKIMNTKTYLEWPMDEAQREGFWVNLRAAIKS
In assay [12] the target is IFN-γ C-terminal peptide … (human).

As usually defined, the Kd is the concentration at which binding is half-saturated. In the case of “LcrV68-326, N-terminally truncated LcrV (from UniProt P0C7U7 68-326)”, the Kd in assay [1] stood at 1 mM; in [2] it was 1 mM; in assay [3], 0.55 nM; in [4], 1 mM; in assay [5] it was 1 mM.
For “LcrV68-326, N-terminally truncated LcrV (from UniProt P0C7U7 68-326) (other; other documents disagree on this pair)”, the Kd in [6] stood at 1 mM; in assay [7] it was 1 mM; in assay [8], 0.8 nM; in assay [9], 1 mM; in [10] it was 1 mM.
On to “LcrV (V antigen) of Yersinia pestis KIM, recombinant, freed of hexahistidine (from UniProt P0C7U7 1-326) (other; other documents disagree on this pair)”, for which the Kd in [11] is 1 mM.
For “LcrV (V antigen) of Yersinia pestis KIM, recombinant, freed of hexahistidine (from UniProt P0C7U7 1-326)”, the Kd in assay [12] is 6 pM.

These data come from patent US20060246084A1.
